Laboratory results published in the DeepSol protein solubility set.

Assay: soluble on expression in E. coli; label from the status in PepcDB or PDB records

| Sequence | soluble on expression in E. coli |
| --- | --- |
| MGSDKIHHHHHHENLYFQGMKQIPQDFRLIEDFFRTRRSVRKFIDRPVEEEKLMAILEAGRIAPSAHNYQPWHFLVVREEEGRKRLAPCSQQPWFPGAPIYIITLGDHQRAWKRGAGDSVDIDTSIAMTYMMLEAHSLGLGCTWVCAFDQALCSEIFDIPSHMTPVSILALGYGDPTVPPREAFNRKTIEEVVSFEKL | soluble |
| MERNDIINFKALEKELQAALTADEKYKRENAAKLRAVEQRVASYEEFRGIVLASHLKPLERKDKMGGKRTVPWNCHTIQGRTFQDVATEISPEKAPLQPETSADFYRDWRRHLPSGPERYQALLQLGGPRLGCLFQTDVGFGLLGELLVALADHVGPADRAAVLGILCSLASTGRFTLNLSLLSRAERESCKGLFQKLQAMGNPRSVKEGLSWEEQGLEEQSGGLQEEERLLQELLELYQVD | soluble |
| MGSSHHHHHHGGTGENLYFQGGSGLLSHHCIYPSRMFGDGRLLMDTSISGGMLLGLDVCGGVKLWPQHQYTAVELILPSALSGVREVLVPPVSMSGAGEESQRASEAGSGKQRASSPPLPRNLPGSRVIRIIHEASEIPAEVAGSYNSALNGSRRKGSKAMRSLDRGPAGTSGGRASSSIVPRYFDEFHRLRSQRVMEGSLKTVLEATNASIIGEARLRRQRRRYAVKHNKTIFIKGKTAAGDEQ | not soluble |
| MKTIEVDDELYSYIASHTKHIGESRSDILRRMLKFSAASQKPVKTIKDKVRAMRELLLSDEYAEQKRAVNRFMLLLSTLYSLDAQAFAEATESLHGRTRVYFAADEQTLLKNGNQTKPKHVPGTPYWVITNTNTGRKCSMIEHIMQSMQFPAELIEKVCGTI | soluble |
| MGSDKIHHHHHHMNQRMKSHFQYSTLENIPKAFDILKDPPKKLYCVGDTKLLDTPLKVAIIGTRRPTPYSKQHTITLARELAKNGAVIVSGGALGVDIIAQENALPKTIMLSPCSLDFIYPTNNHKVIQEIAQNGLILSEYEKDFMPIKGSFLARNRLVIALSDVVIIPQADLKSGSMSSARLAQKYQKPLFVLPQRLNESDGTNELLEKGQAQGIFNIQNFINTLLKDYHLKEMPEMEDEFLEYCAKNPSYEEAYLKFGDKLLEYELLGKIKRINHIVVLA | not soluble |
| MKILVFGGTRFFGKKLVERLVSEGHDVTIGTRGKTEDNFGDTVKRVVLNRESRDALFQLAKEDWDVIYDNICFSPKEALYAVDAFKGKVKRYIYTSSLSVYSQKGRALVEADFNPEHYEIVIGDKEDFDYGEGKRLAEAVFFQKASFPVVAVRFPIVLGLDDYTKRLHFHINHIKNHQEIGISNGQAEIGFITSDEAAHFLEWVGVESDLTGPVNATSNGTYALNGFIKMLEEKIGELALVEEVTDDVDDSPFGIEKTYYLDNAKATEAGFVFNDLKVWLPALVTDILKENLEHHHHHH | not soluble |
| MGSDKIHHHHHHMEKRLDYITDLMALGPTANARTIQRRQTAHRLAIAEAWQVKPGEKILEIGCGQGDLSAVLADQVGSSGHVTGIDIASPDYGAPLTLGQAWNHLLAGPLGDRLTVHFNTNLSDDLGPIADQHFDRVVLAHSLWYFASANALALLFKNMAAVCDHVDVAEWSMQPTALDQIGHLQAAMIQGLLYAIAPSDVANIRTLITPDTLAQIAHDNTWTYTAGTIVEDPTLDDAHWEIATTNALLTELKLSTDLRDRVKPLLEAMSHNGTASLATFTGRITF | not soluble |
| MSDWNPSLYLHFAAERSRPAVELLARVPLENVDYVADLGCGPGNSTALLHQRWPAARITGIDSSPAMIAEARSALPDCQFVEADIRNWQPEQALDLIFANASLQWLPDHYELFPHLVSLLNPQGVLAVQMPDNWLEPTHVLMREVAWEQNYPDRGRESLAGVHAYYDILSEAGCEVDIWRTTYYHQMPSHQAIIDWVTATGLRPWLQDLTESEQQLFLTRYHQMLKEQYPLQENGQILLAFPRLFIVARRTE | soluble |
| MSLSEDKMDLYLQQGMYGPLETKPDERHLFLGSLRERVVLALTKGQVLRSKPYKEAEHELKNSHNVTLLINGELQYQSYSSYIQMASRYGVPFKIVSDLQFHTPLGIVIAADIAVNRELIYIQDDIYNRSVLKSEGHHHHHH | soluble |
| MIPRRSCWLILLLNLLNVQSLLDASWWSTVAQLSTALAGHNVKPVCELPGLSPGQAQVCELFKDHMPAVSIGAQNAIQECQRQFTGHRWNCSTHYSTGMLGPIHKMATREAAFTYAILSAGVTHEIGRRCKQGLLTSCGCSDETKPKNVPTDWSWGGCGDNVEYGYKFSRDFIDIREKEHDPKRNHDNGRSLMNRRNNEAGRKILKRHRKPKCKCHGVSGACNMKTCWMQLPSMEQVGKILRNKYDKAIRVQINDRGNLQLLADEATKERKTRALPTDLVFMDDSPDYCRFDRHSGTLGTEGRVCKRGSGGAEGCDSLCCGRGYNTYTQEVKSKCNCKFEWCCKVVCQTCNNVTQVDICK | not soluble |
| MQLNMMLENRDYTLVIDHSASMAKPDGNSENSKWQAIQESTFALARKCEEFDSDGITVYLFSKTFQRYDYVNSAKVKQLFAENSPSETTNLVGVLQDAINSYFQRKSLGKTKPAGEVILVITDGAPVDSQAVCEVIIKATHLVESANELRISIIQVGSDSHATKFLKALDDHLQSVGAKFDICDTITLDELEITNLSDVLMKAITDLEHHHHHH | soluble |
| MGSDKIHHHHHHVLAPSSADTLQGLPYEVVSYRKTYESGYRSDWHSHPRHQIIYSVSGLMMTDTEGVRWAVPSGFGLIVPAGIAHTTKMIGDVSIETLYVSPSSRGRSAFESCRVVSISAMLASLISELCREELRDRNSRKAFHLRQLIFLELSDAPTSHLAVKYPVDPQLRRVCDALIADPANSWTIDQWAFEIGKSRRSFTRAFYSQTDQTFRQWTQRLRCQLALQKRAEGQSLERIARDLGYGSRYSLEAMMQKLIMVEEIN | not soluble |
| MSLNNNDLVAKLWKLCDNLRDGGVSYQNYVNELASLLFLKMCKETGQEAEYLPEGYRWDDLKSRIGQEQLQFYRKMLVHLGEDDKKLVQAVFHNVSTTITEPKQITALVSNMDSLDWYNGAHGKSRDDFGDMYEGLLQKNANETKSGAGQYFTPRPLIKTIIHLLKPQPREVVQDPAAGTAGFLIEADRYVKSQTNDLDDLDGDTQDFQIHRAFIGLELVPGTRRLALMNCLLHDIEGNLDHGGAIRLGNTLGSDGENLPKAHIVATNPPFGSAAGTNITRTFVHPTSNKQLCFMQHIIETLHPGGRAAVVVPDNVLFEGGKGTDIRRDLMDKCHLHTILRLPTGIFYAQGVKTNVLFFTKGTVANPNQDKNCTDDVWVYDLRTNMPSFGKRTPFTDEHLQPFERVYGEDPHGLSPRTEGEWSFNAEETEVADSEENKNTDQHLATSRWRKFSREWIRTAKSDSLDISWLKDKDSIDADSLPEPDVLAAEAMGELVQALSELDALMRELGASDEADLQRQLLEEAFGGVKEEGGSHHHHHH | soluble |
| MGSDKIHHHHHHLDGDTQISIEALTSLSQITAEEWDACACPEDGRPLDPFTTYRFLDALEQSGSVGPGSGWQPRYLVARMDDQVIACAPMYAKGHSQGEYIFDHNWAHAYENAGGAYYPKLQIAAPFTPATGRRFLTRPGHDATGISALIQGAVQIAADNDLSSLHVTFCTEDEAIAGERIGLMRRWSQQFHWVNDGYADFDGFLASLSSRKRKNIRKERARAQAFGGEIVSLTGAQIKAEHWDAFWHFYQDTGARKWGTPYLTRAFFDIVHETLTDDMLLCLAIREGQPVAGALNFIGADTLYGRYWGCVEDHPCLHFELCYYQAIDYAIANGLSRVEAGAQGAHKLARGYLPVATHSLHWVRDAGFAEAIGRYLEAEREAVDEEIEVLTGYGPFKRA | not soluble |
| MGSSHHHHHHGKTIFVIVPTNEEQVAFLEALAKQDELNFDWQNPPTEPGQPVVILIPSDMVEWFLEMLKAKGIPFTVYVEEGGSENLYFQGGGGGGAKDCITRGPNSMIAWKYEDGSFQCDNCIGAHAVGVSSGTVRRRWTEYDKDRNILNSFVEEHREGKKLVLHDESRGMSILLRSDLSGIRTEGEQTFRQLYSGAFISVVDCT | soluble |
| ERVPEGSIRVAIASNNGEQLDGHFGSCLRFLVYQVSAKDASLVDIRSTLDVALAEDKNAWRVEQIQDCQVLYVVSIGGPAAAKVVRAGIHPLKKPKGCAAQEAIAELQTVMAGSPPPWLAKLVGVSAEERVRFSVSDDEDEAARA | soluble |
| MTIADCDPQISFEKEVYFPGDEVKGRAWVSTTKNLKATSVEITFSGKTITAHNGKKIIKDKKCKKGEETYVEMKHEVWTPEDTENTFPSGDYEWNFSFELPKDCPPSFEGKYGFIRYSVLLHIAVPNGKPINVERAVTVSSMVDLNAVNAHEPAKIHVDNVAEYCHCLPCLPTRGNVIYTLQSPKCGYVAGENVIVSGQIENGTSKPMKIITAKLTRRITYREELKAKANAKKKADGADGFKSKLEEQILETKIERCNVPARSSKDFAFSFDIPAVVSTIRSSRLLAVEYFVTVWGDTGTCNRGGVAALNIIVGNVPLFLGSSSLPPRKFVDGEDAQSWTVDMKPVFTYQVPYYGH | not soluble |
| MDKNLLEAVKFDEKGLVCAIAQDAETKRILMVAWMNAEALQKTVETGFAHYYSRSRQKQWMKGEESGHTQKVRALRLDCDGDAIVMLIAQNGGIACHTGRESCFYKVWRGSAWETADAVLKDEKEIYGSTH | not soluble |
| MTNVQEQDKRKGGRPPTGRVRKLSKSVTVKFSKPSYEALKLRARKANRKLAEYIRESALNGEVVSGHNAETVAIAKNLIGMANNLNQLANLSHQRGFHETHVYVVDLLRRLKEILDEYRQASYKPKPSSMGRKEDTT | not soluble |
| GPGSMTYYRERRKTLTVQGLKDAVQESLAKYLYDNAIFCAERLYALAPTHESLHTVAHCYVTSGDAGTAYRILRAHYPYLLSATPSFATTNSSTSGNGTGVGSNTAADAAARWDCQYLLGVTCGMTQRYMEGESFLEELERQQSSSEVLYWLGVCRRHLRRGYAEEAFAKSAVLDPLNFVAFENHVKMTRTPREEVRCIYTDAAPGVGAEDAVRRSSMSGMGIGGVGGAHRHVKREALRLYLSPFASVTFLQWTYRCKEARALLQHESFPERDSGWAFGALAMAYFHDGDVENSTVEFANMRRVAPWRLADPALVYYSTALWQRKELGTLGSLSQTLINEMPASPITLCVVANNYSLAKESKESLCMLNRAIQVDHDFAYAHTLRGYELLYLDLKSEAVDAFHEAILIDGGHYNAYAGLGELYFRSEDLQKARNYFQQAISINPLPTIMNRYAATYHRRDATRESLNEALRIYESAIRRHPTNLGARHQRAEVLIRLGRFHEAHDELLGMTKECPDEAMLYVTLAKCVHLMGLTGQAVQYYHTAMDLDPRRVGYIKSCLERLAMGKPDVAEANA | not soluble |
| ILLVHGSGYGGWCWDATIRALAAHGARARALDLPGRIFTPGLSLADHAAAILQEIRAPVTLVGHSAGGFSIAAAAEAAAPGLIERLIFLCAYAPRDGASVASMRRAQARQPLRPAIRLAPDRLSYSFDPDLAGEALFHDCPPEVRAAALARMGAEPVGPQEERIRLSARYHALPKHYIRCLEDRAIPPETQEAMTADWPAGSVSTLPAGHSPFLSCPEALAKRLISVAAN | not soluble |
| MRTTYREHLDAFAQDLITMCDTVAAVVEGASTGLLEGSLQSAQHALSLSDELDEVKNRATKRAVQLLSLEAPVARDLRQIVSSIYIIEDFDRMASLAMHIASMARRRHPDLVVPEPIRGYFHEMARLCTEMSDKTRSVLVDPDADVAIVLAADDDAIDDIHEHIMTLLTKKEWPFSTRAAVEVTLLARYYERFADHTVNVAAQIVYLTTGLMPEEYKKKRDDGFEPDEMEARFAQLEEQFANYDWPKPAD | not soluble |
